# In patent US20240190950A1 (SHANGHAI JIAO TONG UNIVERSITY, published 2024):
# T1: FGFR1 (protein used in the ForteBio and ELISA assays) (human, UniProt P11362 22-376, limits assumed)
# T1 construct: That entry still holds signal peptide, transmembrane and kinase parts; also called human FGFR1
# T1 sequence: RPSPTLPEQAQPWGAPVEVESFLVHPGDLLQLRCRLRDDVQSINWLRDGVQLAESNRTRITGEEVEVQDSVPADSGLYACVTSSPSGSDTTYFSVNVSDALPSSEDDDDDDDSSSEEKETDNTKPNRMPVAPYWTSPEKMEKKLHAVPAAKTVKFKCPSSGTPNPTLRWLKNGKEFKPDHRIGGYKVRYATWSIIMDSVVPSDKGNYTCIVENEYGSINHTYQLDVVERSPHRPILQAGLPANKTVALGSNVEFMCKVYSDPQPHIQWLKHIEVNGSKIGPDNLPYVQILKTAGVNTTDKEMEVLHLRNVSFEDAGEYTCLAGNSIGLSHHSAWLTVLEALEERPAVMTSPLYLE
# B1: Gremlin1 (human gremlin 1, hGREM1) (ligand)
# chain: KKKGSQGAIPPPDKAQHNDSEQTQSPQQPGSRNRGRGQGRGTAMPGEEVLESSQEALHVTERKYLKRDWCKTQPLKQTIHEEGCNSRTIINRFCYGQCNSFYIPRHIRKEEGSFQSCSFCKPKKFTTMMVTLNCPELQPPTKKKRVTRVKQCRCISIDLD
# modifications: biotin label in the ForteBio assay (site not stated)
# notes: also called Gremlin1-biotin; Flag-tagged GREM1
# B2: 14E3 (antibody, IgG2a, V domains shown)
# VH: QIQLVQSGPELKKPGETVKISCKTSGSTFTTYGMAWMKQAPGKGLTWMGWINTLSGEPTYADDFKGRFAFSLKTSANTAYLQINNLKNEDAATYFCAREPMDYWGQGTSVIVSS
# VL: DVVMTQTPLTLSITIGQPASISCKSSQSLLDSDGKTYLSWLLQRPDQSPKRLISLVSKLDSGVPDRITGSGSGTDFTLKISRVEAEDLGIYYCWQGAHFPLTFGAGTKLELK
# notes: also called anti-human-Gremlin1 (14E3); anti-human-GREM1 antibody 14E3
# Experiments:
# [1] = biological target: T1, FGFR1 (protein used in the ForteBio and …); assay: ForteBio (the text calls it surface plasmon resonance analysis); Gremlin1-biotin immobilized on streptavidin sensor, FGFR1 in solution
# From the text: We next asked the mechanism leading to the activation of the FGFR1/MEK/ERK signaling pathway by GREM1. We performed surface plasmon resonance analysis (Fortebio) to first assess whether GREM1 can bind to FGFR1. […] Computer simulation imitated that GREM1 binds to the extracellular domain of FGFR1 as a dimer (FIG. 9B). […] In addition, the activation of GREM1 on the FGFR1/MEK/ERK signaling pathway could be attenuated by adding excessive amount of soluble FGFR1 (FIG. 9G).
# [2] = biological target: B1; assay: ELISA, antibody titrated on Gremlin1 (Ab is anti-human-Gremlin1 14E3)
Binder,Kd [1] [nM],EC50 (read off the curve) [2] [ng/mL]
B1,10.6,–
B2,–,~10
